# From patent publication US20220177594A1 (ZOETIS SERVICES, published 2022)
# Where a chain is given by its changes, count along the chain named.
# B1: Mu_02D09_VH (SEQ ID NO: 31)_D31A (antibody, V domains shown)
# VH: EVQLVESGGGLVKPGGSLTLSCAASGFTFSAYGMHWLRQAPEKGLEWVAYISSGSRAVFFADTVKGRFTISRDNAKNTLFLQMTSLRSDDTAMYYCARDRYDGRGFAYWGQGTLVTVSA
# VL: DIVLTQSPATLSVTPGDSVSLSCRASQSISNNLHWYQQTSHESPRLLITYASQSISGIPSRFSGSGSGTDFTLSINSVETEDFGMYFCQQSNSWPLTFGAGTKLELKR
# B2: Mu_02D09_VH (SEQ ID NO: 31)_D62A (antibody, V domains shown)
# VH: B1 VH with A31D, D62A
# VL: B1 VL
# B3: Mu_02D09_VL (SEQ ID NO: 33)_Q27A (antibody, V domains shown)
# VH: B1 VH with A31D
# VL: B1 VL with Q27A
# B4: Mu_02D09_VL (SEQ ID NO: 33)_W94A (antibody, V domains shown)
# VH: B1 VH with A31D
# VL: B1 VL with W94A
# B5: Mu_02D09_VH (SEQ ID NO: 31)_Y50A (antibody, V domains shown)
# VH: B1 VH with A31D, Y50A
# VL: B1 VL
# B6: Mu_02D09_VL (SEQ ID NO: 33)_I29A (antibody, V domains shown)
# VH: B1 VH with A31D
# VL: B1 VL with I29A
# B7: Mu_02D09_VH (SEQ ID NO: 31)_G33A (antibody, V domains shown)
# VH: B1 VH with A31D, G33A
# VL: B1 VL
# B8: Mu_02D09_VH (SEQ ID NO: 31)_Y101A (antibody, V domains shown)
# VH: B1 VH with A31D, Y101A
# VL: B1 VL
# B9: Mu_02D09_VL (SEQ ID NO: 33)_S56A (antibody, V domains shown)
# VH: B1 VH with A31D
# VL: B1 VL with S56A
# B10: Mu_02D09_VH (SEQ ID NO: 31)_R104A (antibody, V domains shown)
# VH: B1 VH with A31D, R104A
# VL: B1 VL
# B11: Mu_02D09_VH (SEQ ID NO: 31)_S52A (antibody, V domains shown)
# VH: B1 VH with A31D, S52A
# VL: B1 VL
# B12: Mu_02D09_VL (SEQ ID NO: 33)_L96A (antibody, V domains shown)
# VH: B1 VH with A31D
# VL: B1 VL with L96A
# B13: Mu_02D09_VH (SEQ ID NO: 31)_D99A (antibody, V domains shown)
# VH: B1 VH with A31D, D99A
# VL: B1 VL
# B14: Mu_02D09_VH (SEQ ID NO: 31)_Y32A (antibody, V domains shown)
# VH: B1 VH with A31D, Y32A
# VL: B1 VL
# B15: Mu_02D09_VH (SEQ ID NO: 31)_D102A (antibody, V domains shown)
# VH: B1 VH with A31D, D102A
# VL: B1 VL
# B16: Mu_02D09_VH (SEQ ID NO: 31)_H35A (antibody, V domains shown)
# VH: B1 VH with A31D, H35A
# VL: B1 VL
# B17: Mu_09E09_VH (SEQ ID NO: 35)_S35A (antibody, V domains shown)
# VH: DVKLVESGEGLVKPGGSLKLSCAASGFTFSSYAMAWVRQTPEKRLEWVAYISSGGDYIYYADTVKGRFTISRDNARNTLYLQMSSLKSEDTAMYYCTRDPITGTFAYWGQGTLVTVSA
# VL: DLQMTQTTSSLSASLGDRVTISCRASQDINNYLNWYQQKPDGTVKLLIYYTSTLHSGVPSRFSGSGSGTDYSLTISNLEQEDIATYFCQQGNTLPWTFGGGTKLEIKR
# B18: Mu_09E09_VH (SEQ ID NO: 35)_D99A (antibody, V domains shown)
# VH: B17 VH with A35S, D99A
# VL: B17 VL
# B19: Mu_09E09_VH (SEQ ID NO: 35)_Y50A (antibody, V domains shown)
# VH: B17 VH with A35S, Y50A
# VL: B17 VL
# B20: Mu_09E09_VL (SEQ ID NO: 37)_G91A (antibody, V domains shown)
# VH: B17 VH with A35S
# VL: B17 VL with G91A
# B21: Mu_09E09_VH (SEQ ID NO: 35)_P100A (antibody, V domains shown)
# VH: B17 VH with A35S, P100A
# VL: B17 VL
# B22: Mu_09E09_VH (SEQ ID NO: 35)_Y59A (antibody, V domains shown)
# VH: B17 VH with A35S, Y59A
# VL: B17 VL
# B23: Mu_09E09_VL (SEQ ID NO: 37)_N34A (antibody, V domains shown)
# VH: B17 VH with A35S
# VL: B17 VL with N34A
# B24: Mu_09E09_VL (SEQ ID NO: 37)_N92A (antibody, V domains shown)
# VH: B17 VH with A35S
# VL: B17 VL with N92A
# B25: Mu_09E09_VL (SEQ ID NO: 37)_Q90A (antibody, V domains shown)
# VH: B17 VH with A35S
# VL: B17 VL with Q90A
# B26: Mu_09E09_VL (SEQ ID NO: 37)_W96A (antibody, V domains shown)
# VH: B17 VH with A35S
# VL: B17 VL with W96A
# B27: Mu_09E09_VL (SEQ ID NO: 37)_L94A (antibody, V domains shown)
# VH: B17 VH with A35S
# VL: B17 VL with L94A
# B28: Mu_10F07_VH (SEQ ID NO: 39)_D99A (antibody, V domains shown)
# VH: B17 VH with A35S, A49T, I58F, D99A
# VL: B17 VL with L2I, N30T, Y71F, N92H, T93M
# B29: Mu_09E09_VH (SEQ ID NO: 35)_Y57A (antibody, V domains shown)
# VH: B17 VH with A35S, Y57A
# VL: B17 VL
# B30: Mu_09E09_VH (SEQ ID NO: 35)_T102A (antibody, V domains shown)
# VH: B17 VH with A35S, T102A
# VL: B17 VL
# B31: Mu_09E09_VL (SEQ ID NO: 37)_Y50A (antibody, V domains shown)
# VH: B17 VH with A35S
# VL: B17 VL with Y50A
# B32: Mu_09E09_VH (SEQ ID NO: 35)_I101A (antibody, V domains shown)
# VH: B17 VH with A35S, I101A
# VL: B17 VL
# B33: Mu_09E09_VH (SEQ ID NO: 35)_F105A (antibody, V domains shown)
# VH: B17 VH with A35S, F105A
# VL: B17 VL
# B34: Mu_09E09_VL (SEQ ID NO: 37)_Y32A (antibody, V domains shown)
# VH: B17 VH with A35S
# VL: B17 VL with Y32A
# Target: T1, ANTIBODY EXPRESSION CONTROL
# T1 construct: also called mouse anti-canine antibody (capture reagent of the expression control ELISA)
# Experiment: SPR Biacore, expression control
# Protocol: The affinity with which candidate mAbs bind canine, feline, and human (SEQ ID NO: 122; Human_OSMR) (R&D Systems, Minneapolis, Minn.) OSMR was determined using surface plasmon resonance (SPR) on a Biacore system (Biacore Life Sciences (GE Healthcare), Uppsala, Sweden). To avoid affinity differences associated with differential surface preparation that can occur when immobilizing antibodies to surfaces; OSMR from each species was directly conjugated to individual surfaces. Immobilization was obtained by amine coupling 5 μg/mL OSMR using N-hydroxysuccinimide (NHS)/1-Ethyl-3-(3-dimethylaminopropyl) carbodiimide (EDC) chemistry. Chips were quenched with ethanolamine and the affinity with which all candidate mAbs bound to the immobilized OSMR was evaluated. All curves were fit to a 1:1 model. […] Results for affinity measurements are described herein.
# Data from an ELISA represents an equilibrium state where the antibody is allowed to associate and dissociate over a one-hour period resulting in steady-state binding. Using Biacore, the target protein is immobilized to a surface and the antibody is passed over this surface in a mobile liquid phase. Protein-protein interaction is determined from changes in the surface resonance which allows for calculation of association (kₐ), disassociation (kd), and affinity constant (KD). While not wishing to be bound to one hypothesis we present data from ELISA and Biacore experiments, using the same preparation of antibody, that may result in agreement between the two methods with respect to binding but also may show contradictory results due to the nature of the binding kinetics and different assay dynamics. The data presented in Table A (in combination with experimental results from yeast display mutational analysis in Example 21) allow for the definition of a structure:function relationship to be defined between the anti-OSMR antibodies described here and their ability to bind and block IL-31 and OSM-mediated signaling through the OSMR receptor.
Binder,Kd,koff,kon
B1,68.5 pM,8.32e-05 s⁻¹,1.21e+06 M⁻¹ s⁻¹
B2,1.9 pM,2.45e-07 s⁻¹,129000 M⁻¹ s⁻¹
B3,1200 pM,0.00019 s⁻¹,158000 M⁻¹ s⁻¹
B4,97.7 pM,3.16e-05 s⁻¹,323000 M⁻¹ s⁻¹
B5,2.59 pM,3.68e-07 s⁻¹,142000 M⁻¹ s⁻¹
B6,714 pM,9.47e-05 s⁻¹,133000 M⁻¹ s⁻¹
B7,22.5 pM,7.35e-06 s⁻¹,327000 M⁻¹ s⁻¹
B8,280 pM,4.11e-05 s⁻¹,147000 M⁻¹ s⁻¹
B9,844 pM,0.000111 s⁻¹,132000 M⁻¹ s⁻¹
B10,229 pM,2.41e-05 s⁻¹,105000 M⁻¹ s⁻¹
B11,23.3 pM,7.55e-06 s⁻¹,323000 M⁻¹ s⁻¹
B12,65.9 pM,2.43e-05 s⁻¹,370000 M⁻¹ s⁻¹
B13,1630 pM,0.000384 s⁻¹,235000 M⁻¹ s⁻¹
B14,366 pM,4.43e-05 s⁻¹,121000 M⁻¹ s⁻¹
B15,547 pM,7.4e-05 s⁻¹,135000 M⁻¹ s⁻¹
B16,803 pM,0.000112 s⁻¹,139000 M⁻¹ s⁻¹
B17,180 pM,5.34e-05 s⁻¹,297000 M⁻¹ s⁻¹

Binder,Kd,koff,kon
B18,219 pM,6.88e-05 s⁻¹,314000 M⁻¹ s⁻¹
B19,179 pM,5.4e-05 s⁻¹,301000 M⁻¹ s⁻¹
B20,306 pM,8.96e-05 s⁻¹,292000 M⁻¹ s⁻¹
B21,78.6 pM,2.35e-05 s⁻¹,300000 M⁻¹ s⁻¹
B22,147 pM,4.52e-05 s⁻¹,307000 M⁻¹ s⁻¹
B23,317 pM,8.91e-05 s⁻¹,281000 M⁻¹ s⁻¹
B24,257 pM,7.59e-05 s⁻¹,296000 M⁻¹ s⁻¹
B25,249 pM,7.12e-05 s⁻¹,286000 M⁻¹ s⁻¹
B26,345 pM,9.76e-05 s⁻¹,283000 M⁻¹ s⁻¹
B27,250 pM,7.63e-05 s⁻¹,305000 M⁻¹ s⁻¹
B28,1010 pM,0.000118 s⁻¹,117000 M⁻¹ s⁻¹
B29,208 pM,6.34e-05 s⁻¹,305000 M⁻¹ s⁻¹
B30,172 pM,5.33e-05 s⁻¹,311000 M⁻¹ s⁻¹
B31,257 pM,7.96e-05 s⁻¹,310000 M⁻¹ s⁻¹
B32,172 pM,5.4e-05 s⁻¹,314000 M⁻¹ s⁻¹
B33,138 pM,4.66e-05 s⁻¹,338000 M⁻¹ s⁻¹
B34,294 pM,8.76e-05 s⁻¹,298000 M⁻¹ s⁻¹
